From paper PMC10365013 (2022)

Key:
PP1CA-KRAS = PP1CA-KRAS (Homo sapiens, UniProt P62136); assay: SPR
PP1CA-NRAS = PP1CA-NRAS (Homo sapiens, UniProt P62136); assay: SPR
PP1CA-HRAS = PP1CA-HRAS (Homo sapiens, UniProt P62136); assay: SPR
PP1CA-MRAS = PP1CA-MRAS (Homo sapiens, UniProt P62136); assay: ITC

B1: SHOC2 (protein)
chain: MSSSLGKEKDSKEKDPKVPSAKEREKEAKASGGFGKESKEKEPKTKGKDAKDGKKDSSAAQPGVAFSVDNTIKRPNPAPGTRKKSSNAEVIKELNKCREENSMRLDLSKRSIHILPSSIKELTQLTELYLYSNKLQSLPAEVGCLVNLMTLALSENSLTSLPDSLDNLKKLRMLDLRHNKLREIPSVVYRLDSLTTLYLRFNRITTVEKDIKNLSKLSMLSIRENKIKQLPAEIGELCNLITLDVAHNQLEHLPKEIGNCTQITNLDLQHNELLDLPDTIGNLSSLSRLGLRYNRLSAIPRSLAKCSALEELNLENNNISTLPESLLSSLVKLNSLTLARNCFQLYPVGGPSQFSTIYSLNMEHNRINKIPFGIFSRAKVLSKLNMKDNQLTSLPLDFGTWTSMVELNLATNQLTKIPEDVSGLVSLEVLILSNNLLKKLPHGLGNLRKLRELDLEENKLESLPNEIAYLKDLQKLVLTNNQLTTLPRGIGHLTNLTHLGLGENLLTHLPEEIGTLENLEELYLNDNPNLHSLPFELALCSKLSIMSIENCPLSHLPPQIVAGGPSFIIQFLKMQGPYRAMV
modifications: GMPPNP
Q: How did the Kd (PP1CA-KRAS) turn out when B1 was run?
A: 700 nM

Q: And the Kd (PP1CA-NRAS)?
A: 4000 nM

Q: And the Kd (PP1CA-HRAS)?
A: 2000 nM

Q: What about the Kd (PP1CA-MRAS) of the same binder?
A: ~350 nM
